Test results as given in patent US20190225670A1, “COMPOUNDS AND METHODS FOR ACTIVATING TIE2 SIGNALING” (ASCLEPIX THERAPEUTICS, LLC, priority 2016, published 2019).

B1: Ang1: Tie2 ligand; binds Tie2 and stimulates phosphorylation and downstream signaling (protein)
chain: SNQRRSPENSGRRYNRIQHGQCAYTFILPEHDGNCRESTTDQYNTNALQRDAPHVEPDFSSQKLQHLEHVMENYTQWLQKLENYIVENMKSEMAQIQQNAVQNHTATMLEIGTSLLSQTAEQTRKLTDVETQVLNQTSRLEIQLLENSLSTYKLEKQLLQQTNEILKIHEKNSLLEHKILEMEGKHKEELDTLKEEKENLQGLVTRQTYIIQELEKQLNRATTNNSVLQKQQLELMDTVHNLVNLCTKEGVLLKGGKREEEKPFRDCADVYQAGFNKSGIYTIYINNMPEPKKVFCNMDVNGGGWTVIQHREDGSLDFQRGWKEYKMGFGNPSGEYWLGNEFIFAITSQRQYMLRIELMDWEGNRAYSQYDRFHIGNEKQNYRLYLKGHTGTAGKQSSLILHGADFSTKDADNDNCMCKCALMLTGGWWFDACGPSNLNGMFYTAGQNHGKLNGIKWHYFKGPSYSLRSTTMMIRPLDF
B2: Ang2: Tie2 ligand; endogenous Tie2 antagonist and weak agonist (protein)
chain: YNNFRKSMDSIGKKQYQVQHGSCSYTFLLPEMDNCRSSSSPYVSNAVQRDAPLEYDDSVQRLQVLENIMENNTQWLMKLENYIQDNMKKEMVEIQQNAVQNQTAVMIEIGTNLLNQTAEQTRKLTDVEAQVLNQTTRLELQLLEHSLSTNKLEKQILDQTSEINKLQDKNSFLEKKVLAMEDKHIIQLQSIKEEKDQLQVLVSKQNSIIEELEKKIVTATVNNSVLQKQQHDLMETVNNLLTMMSTSNSAKDPTVAKEEQISFRDCAEVFKSGHTTNGIYTLTFPNSTEEIKAYCDMEAGGGGWTIIQRREDGSVDFQRTWKEYKVGFGNPSGEYWLGNEFVSQLTNQQRYVLKIHLKDWEGNEAYSLYEHFYLSSEELNYRIHLKGLTGTAGKISSISQPGNDFSTKDGDNDKCICKCSQMLTGGWWFDACGPSNLNGMYYPQRQNTNKFNGIKWYYWKGSGYSLKATTMMIRPADF

Assays:
MEC monolayers = assay: FITC Transwell permeability assay; assay type: cell-based, human; settings: each agent alone
Method: The integrity of these junctions is also important for the regulation of monolayer permeability by controlling the size of intercellular openings. The effect of the AXT107 on EC permeability was further investigated by the transendothelial diffusion of FITC-labeled dextran across MEC monolayers seeded onto permeable Transwell® substrates.
Transwell, twenty-four-well inserts (Corning) were coated with 7.5 μg/cm^2 FN1 for two hours at 37° C., aspirated, and then dried for thirty minutes at room temperature. Wells were then seeded with 7.5×10^4 MECs in 100 μl of EBM-2 media (without phenol red) and allowed to settle for thirty minutes at room temperature. 1 ml of EGM-2 media was then added to the bottom chamber and an additional 200 μl to the top chamber. The plate was incubated for twenty-four hours at 37° C. after which the media was aspirated and an additional 7.5×10^4 MECs were plated in each well as described above. After forty-eight hours at 37° C., the media was aspirated from both chambers and the cells were washed twice in dPBS containing Ca^2+ and Mg^2+, once with EBM-2 media (without phenol red) and serum starved in EBM-2 media applied to both chambers for two hours at 37° C. After this incubation, 100 μM AXT107 or an equivalent amount of DMSO vehicle was added and incubated for an additional ninety minutes. In the top chamber, the cells were then treated with 200 ng/ml Ang2, 100 ng/ml VEGFA, both, or PBS control and in the bottom chamber, the cells were then treated with 25 μg/ml FITC-Dextran (40 kDa MW). AXT107 was also added in both chambers to maintain a concentration of 100 μM. After three hours, 10 μl was removed from the top chamber of each well and mixed with 90 μl of water in a clear bottom, 96-well plate. Fluorescence values for each sample were calculated using a Perkin Elmer plate reader.

Tie2 = assay: Western blot of phospho-Tie2 (Y992) in MEC monolayers treated with AXT107 and angiopoietin; assay type: cell-based, human; settings: ligand alone, no AXT107
Method: A confluent monolayer of human microvascular endothelial cells (HMEC) was serum starved with EBM-2 overnight. After a 90 min treatment with AXT107 at concentrations of 0, 10, 32, and 100 μM, the cells were treated for 15 min with 1 mM sodium orthovanadate. Next the cells were treated with Angiopoietin-2 (Ang-2) at 200 ng/mL for 15 min. Following cell lysis, the lysates were immunoblotted for pTie2 (Y992), pSTAT3 (Y705), and pAkt (S473).
To investigate the effects of the integrin inhibitor AXT107 on Tie2 signaling, confluent monolayers of microvascular endothelial cells (MECs) on fibronectin-coated dishes were treated with various concentrations of AXT107 followed by exposure to the Tie2 ligands Ang1 or Ang2.
For Ang1/2 signaling investigations, cell culture dishes (10 cm diameter) were coated with 5 μg/ml fibronectin (FN1; Sigma-Aldrich, St. Louis, Mo.) for two hours at 37° C. The FN1 solution was then removed by aspiration and 5×10^6 microvascular endothelial cells (MECs; Lonza, Walkersville, Md.) were plated in EGM-2MV media (Lonza) and cultured for forty-eight hours at 37° C. The cells were then serum starved for sixteen hours in serum-free EGM-2 base media (Lonza). AXT107 (0-100 μM, as indicated) was subsequently added to each culture and incubated for seventy-five minutes at 37° C. The cultures were then treated with 1 mM sodium vanadate (New England Biolabs, Ipswich, Mass.) for fifteen minutes to enhance the phospho-Tie2 signal followed by stimulation with 200 ng/ml angiopoietin (R&D Systems, Minneapolis, Minn.) for an additional fifteen minutes. The cells were then transferred to ice, washed twice with ice cold Dulbecco's phosphate-buffered saline (dPBS) containing Ca^2+ and Mg^2+, and collected by scraping in 500 μl of 1×Blue Loading Buffer (Cell Signaling, Danvers, Mass.). Lysate samples were then sonicated, boiled, and resolved by SDS-PAGE. Specific proteins were identified by Western blot, using the following primary antibodies: Cell Signaling—phospho-Tie2 (Y992) (Cat#: 4221), Tie2 (Cat#: 7403), phospho-Stat3 (Y705) (Cat#: 4113), Stat3 (Cat#: 4904), phospho-Akt (S473) (Cat#: 4058), Akt (Cat#: 9272), phospho-p44/42 MAPK (T202/Y204) (Cat#: 4370), p44/42 MAPK (Cat#: 4695); BD Transduction Laboratories—β1 integrin (Cat#: 610467); Millipore—α5 integrin (Cat#: AB1928) and detected with HRP-conjugated goat anti-rabbit and sheep anti-mouse secondary antibodies (GE healthcare).

Molecule	FITC-dextran diffusion across the monolayer, single treatment (MEC monolayers)	Tie2 phosphorylation by ligand alone (Tie2)
VEGF	appeared to increase permeability (although non-significantly)	–
B1	–	induced phosphorylation
B2	influenced FITC-dextran diffusion across the monolayer	insignificant effects
